Experimental data published in patent US20240425579A1.

Key:
[1] = biological target: T1, biotinylated hu-PDL2 (human) (UniProt Q9BQ51); assay: ELISA: construct coated at 1 µg/mL, varying biotinylated hu-PDL2, streptavidin-HRP
T1 sequence (biotinylated, looked up): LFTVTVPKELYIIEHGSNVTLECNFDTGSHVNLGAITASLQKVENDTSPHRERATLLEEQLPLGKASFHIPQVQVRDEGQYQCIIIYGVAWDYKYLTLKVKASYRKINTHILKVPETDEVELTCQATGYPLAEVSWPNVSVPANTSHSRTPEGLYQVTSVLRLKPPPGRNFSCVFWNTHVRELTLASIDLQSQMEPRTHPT

[2] = biological target: T1, biotinylated hu-PDL2 (human); assay: ELISA: varying concentrations of construct coated, fixed biotinylated hu-PDL2 (500 ng/mL)

wild type PD1 construct (wild-type PD1 ECD comparator of anti-IL-23-PD1ecd), sequence (heavy, part): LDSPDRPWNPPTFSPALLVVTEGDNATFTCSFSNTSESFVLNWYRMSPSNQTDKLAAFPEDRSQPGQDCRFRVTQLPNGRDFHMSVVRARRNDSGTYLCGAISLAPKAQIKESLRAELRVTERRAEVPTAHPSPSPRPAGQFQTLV

Which EC50 [1] does the source give for “wild type PD1 construct (wild-type PD1 ECD comparator of anti-IL-23-PD1ecd)” here?
Its EC50 is 0.131 µM.

What about the EC50 [2] of the same substance?
Its EC50 is 6 µM.
